Results taken from the DeepSol protein solubility set.

Test: soluble on expression in E. coli; label from the status in PepcDB or PDB records

Row | Sequence | soluble on expression in E. coli
1 | MSLVMKASVDDDDSGWELSMPEKMEKSNTNWVDITQDFEEACRELKLGELLHDKLFGLFEAMSAIEMMDPKMDAGMIGNQVNRKVLNFEQAIKDGTIKIKDLTLPELIGIMDTCFCCLITWLEGHSLAQTVFTCLYIHNPDFIEDPAMKAFALGILKICDIAREKVNKAAVFEEEDFQSMTYGFKMANSVTDLRVTGMLKDVEDDMQRRVKSTRSRQGEERDPEVELEHQQCLAVFSRVKFTRVLLTVLIAFTKKETSAVAEAQKLMVQAADLLSAIHNSLHHGIQAQNDTTKGDHPIMMGFEPLVNQRLLPPTFPRYAKIIKREEMVNYFARLIDRIKTVCEVVNLTNLHCILDFFCEFSEQSPCVLSRSLLQTTFLVDNKKVFGTHLMQDMVKDALRSFVSPPVLSPKCYLYNNHQAKDCIDSFVTHCVRPFCSLIQIHGHNRARQRDKLGHILEEFATLQDEAEKVDAALHTMLLKQEPQRQHLACLGTWVLYHNLRIMIQYLLSGFELELYSMHEYYYIYWYLSEFLYAWLMSTLSRADGSQMAEERIMEEQQKGRSSKKTKKKKKVRPLSREITMSQAYQNMCAGMFKTMVAFDMDGKVREGHHHHHH | not soluble
2 | MVLRTGRLSDFQRDMMNDHWAKFGLDYQKSPFDFVEIFGNANPVVLEIGFGMGRSLVEMAAQNPDRNYIGIEVHTPGVGACIAYAVEKQVDNLRVICHDATEILRDAVADGSLAGLQLYFPDPWQKSKHHKRRIVQTEFVMRLLTKLTAGGFIHFATDWQNYAEHMLAVLRQFSPALVNTSPTGDFIDRPAFRPLTKFEARGQRLGHAVWDLYFVKKLEHHHHHH | not soluble
3 | MGSDKIHHHHHHMIRGLYIAVSAMITNQQKQNVVVNNLANMDTNGYKSKQLLTKSFDELKLEGYNNYANGTKQKQIIGDISPGISMDETITNFNQGPIKTTDNKMDVAIQGKGFFLVSDAAGNQFYTRNGNFRTDNQGDLITSEGYYVLGTNTATGAVGHINVGNQKFEVAKDNTISLDGNAMYKFNIVDFNNYNNLKKEGDNLYSGGGAMKVNNALTIQSAIESSNVDMVSEINNMMTISREYEANQKIIQAMDSKLAKIASEIGSVR | not soluble
4 | AGKTLYDKLWDMHLVKQRDDGSALIYIDRHILHEVTSPQAFEGLRLAGRKPWRIDANIATPDHNVPTTRTERKGGIAAIADEVSRLQVQTLDENCDDFGITEFKMNDVRQGIVHVVGPEQGATLPGMTVVCGDSHTSTHGAFGALAHGIGTSEVEHVLATQCLVAKKMKN | not soluble
5 | MAHHHHHHMRFLKTLFSLNCLASVGFYKKFACKNLFFENSFIRKDLHTYFIDKRKYFHLNKKDICTNTIIIPFYKDNYSYIFYDDKEEGIVVDPADYNIINDISKKENIKIKHVLCTHKHSDHNNGNQYYYEKNINVYGIKEYDNKYINQDISNLTHFQINNFKINIFLSNFHSKNQVSYLIENDNNKSKKNIFFTGDFLFISGIGKNFEQDNEDLYNSINKLKLLDKQNIYIFCGHEYTLDNLKFALTVDSTNKNLLSFYDHVVNSNKNYPTVPTLLEHEYLYNPFLRCDQNDVRKSIDLYAKKKNIKIQQESDYIVILRLMKDNFKAS | not soluble
6 | TKNNQQTTPQTNHFNVADPVNKVPNWRKLGPETQRELRDLLYPLDDTGYFIYKYGAISRYLQSQKELDELVDYRTVLPSTQKHFKYDSFNQSVLESKLRKWLMKAIKQHPYFQHFEFDPVLKAQYNINIPAQKITVNAVWFYKKDNDLTTGKPIRYWDQFEIKLKQ | soluble
7 | VKLDDHTYQINGRVLLDDLNKKFGIEFEDSEDIDTIGGWLQSQNTNLQKDDFVDTEYDRWTITEIDNHQIIWVNLNYEFNSGRPSVNEEQEDDERD | not soluble
8 | MGSDKIHHHHHHMQFNKPLRQGVLQKRYKRFLADIDFGDNETTTTHCPNTGAMTGCAEPGFTAWCSVSDNPKRKYSLTWELAQNNNGEMIVVNTQHANRMAGELLQTNLVPELSQWQELKPEQRYGKEKSRIDWWGVDQHNRECFIEVKSVTLADASQGYFPDAVSQRAHKHLNELMQVVADGHRAVQLYMVMHDGIERVSPAAHIDSQYAELCRKAASVGVEFYAVKCRASAKEIKLERPVPVSL | not soluble
9 | VNEVLAKNLSLLKEYQPETYLKLDRYIKGEYVPKDNSVEKILLARQDDLIINILVKCSDKDFLLCDHENPINEAYAWIDKYIDPSNKADIVFGMGLAFHLEVLLTSFPNKKVIVIEPNINLFYQIACIRNLEPVIKKAEIIVDEDLDVILERINSLFWDTEKGGIQVQPLEVYGEMFPEMWDKLRDSFIKLANNFTVDIATRRKFGELWVHNNIKNLNKICEASNAGVLVGKFKGIPGILVSAGPSLEKNIHLLKGLEDKCVIMAAGTAVRIMEDFGLAPHFMVGIDAGAKEGEIHSNVKNKDIYFIYSNQVSTYSVDGYKGPKFVMNYPIDMYTAGFFEYAGIKSDFFLSGPSVANTCFDILFKMGCDPIIIIGQDMAFTYGSMYAGEVPGTVVDGAGEAKRRGYVLAKDIYGNEVYTTRPFLAMRNWFEGYFEKVRDKTTIINATEGGLNISYARNETLEAALKSCNLSESGIKDHIRSLHEEGKFADTVASKIEEYRAYVQREIRRLEQLSKRQLETAEDLKRDVYHPSKSRSRFIKAVNSINEMSDRVLQSPIYNSLLKNLVEIDFYIIKAEVDRLVKILTKYDDIKNVYVNAILSQNQKLNASLGKIKKFFDESDVTA | soluble
10 | MAKFIQKRLFASYIIRKNYYEIIGVSASATRQEIRDAFLKKTKQLHPDQSRKSSKSDSRVGWATGSSETEQFMLVKEAYDVLRNEEKRKEYDLAFSREGGFLMEATHKTQEMSTQRRNIQRAEWSADVIPDAKRNSKKVVYSHFRNPEDEYLREKQKNRM | not soluble
11 | MMYSFEANANAVKISETVSVDTGQGAKIHKFVPKNSKTYSSDLIKTVDLTHIPTGAKARINAKITASVSRAGVLAGVGKLARLGAKFSTRAVPYVGTALLAHDVYETFKEDIQARGYQYDPETDKFAKVSG | not soluble
12 | MDEQEFRKQLTLKPVEEEHIDQFNELLSYVFQVTEADIEESGFENKRAFIKSKQPILELSKVFGWFHENQLISQIAIYPCEVNIHGALYKMGGVTGVGTYPEYANHGLMKDLIQTALEEMRQDKQWISYLFPYNIPYYRRKGWEIMSDKLSFKIRDTQLPKTVPVPGMIERLAVDHPDVFDVYARFARQNHGALIRSAFNWEEYWRFENEEERTAAVYYGANQEPLGVLFYWVADEVFHIKEMFYLNQEARNGLWNFITAHFSMVYWVKGDIYKNEPLAFLLEDSQIKESIEPYYMARIVDVKAFLENFPFESTAKPFHFVVKDPVAEWNNGIFGLIWDENDQVTITDEPLGTAVHLDIQTLTCLVMNYRRPSYLHRIERIDTDKETLNSLERIFPDQEAYFSDYF | soluble
13 | EPEQVIRKYTEELKVAPEEDCIICMEKLAVASGYSDMTDSKALGPMVVGRLTKCSHAFHLLCLLAMYCNGNKDGSLQCPSCKTIYGEKTGTQPWGKMEVFR | soluble
14 | MSLQCALYDAGRCRSCQWITQPIPEQLSAKTADLKNLLADFPVEEWCAPVSGPEQGFRNKAKMVVSGSVEKPLLGMLHRDGTPEDLCDCPLYPASFAPVFAALKPFIARAGLTPYNVARKRGELKYILLTESQSDGGMMLRFVLRSETKLAQLRKALPWLQAQLPQLKVITVNIQPVHMAIMEGETEIYLTEQQALVERFNDVPLWIRPQSFFQTNPAVASQLYATARDWVRQLPVKHMWDLFCGVGGFGLHCATPDMQLTGIEIALEAIACAKQSAAELGLTRLQFQALDSTQFATAQGEVPELVLVNPPRRGIGKPLCDYLSTMAPRFIIYSSCNAQTMAKDIRELPGYRIERVQLFDMFPHTAHYEVLTLLVKMEGHHHHHH | soluble
15 | MPTPCYISITGQTQGNITAGAFTADSVGNIYVQGHEDEMLVQEFLHNVTVPTDPQSGQPAGQRAHKPFIFTVALNKAVPLMYNALASGEMLPTTELHWWRTSVEGKQEHYFTTRLTDSTIVDMKLHMPHCQDPAKREFTQLLEVSLAYRKIEWEHVKSGTSGADDWRAPLEA | soluble
16 | MSLKNVLITGANSYIGLSFKNWLAKEPEKYKVDSISLRGDLWKEKDFSQYDVLLHAAGIAHIKETKENKELYFKVNRDVAYEAAKKAKDEGIKQFIFLSSMSVYGKENGIIDLDTLPKPTSNYGESKLQAEKLIEMLDDDSFKVVTIRPPMIYGKGCKGNYPKLAKLARKLPVFPDVENERSMIHIENLCEFMKLIIDNNDAGLFLPQNDDFVKTSEMVRLIGETNGKRIKLTKFFNPVLNLFIGKIGVVNKVFGNLKYKKEISNYKDNYIINNFAESIRRTEEGHHHHHH | soluble
17 | MSLASLRVLALACLPLFAVLHADAKTLLGKVKRATGMGVGEGPSVAKKPKYTATVPGFTPPSGDQRMNEFMAVDTSGEFMRHLYIEEGRTVCASATSRNRRPTSESPHSDDVVVVEGMLRGRPETRVHAMFDGFQGRHSAMWLAQNVMNYLNDLRDVNEEEITRQFERMDGDLRAANLPGGSSALIIFVRYEKKPTEARVVGRQIVPEGAKEFTSVAEALGGPLMPVVAMNFRRDPRAAKGIYTIHVASLGNSRCVLKSGRTAIHLSTPHTASSHKERHRVQAAGGVFTTVNGELLLGGVVPMTRAFGSFDFKKGGQGKLQQDLVSAVPDVTTFFAYPGDDEGHHHHHH | not soluble
18 | MFSIFKRKTKQVNPFEQGWLTDLIDIHCHLLPAVDDGSKSIEETLSLIDLLEEIGVKQHILTPHIMEEYPSNDAIFLRARFEELLAAITPDKASRLRLAAEYMLDVAFLDRLAEPLLTLGDR | not soluble
19 | MSLNHVRPWRNIHRRKSRQIMVGNVPVGGDAPISVQTMTNTITADAPATIAQVLRAAEAGADIVRVSVPDEASTRALKEIVAASPVPIVADIHFHYKRAIEAAEAGAACLRINPGNIGDASRVREVIKAARDHGCSMRIGVNAGSLEKHLLDKYGEPCPEAMVESGLDHIKILQDNDFHEFKISVKASDVFLAAAAYQALADATDAPIHLGITEAGGLTAGTVKSAVGLGNLLWSGIGDTLRVSLSADPVEEVKVGYEILKSLGLRHRGVTIISCPSCARQGFDVIKTVAELEDRLAHVTTSMSLSIIGCVVNGPGEALMTDIGFTGGGNGSGMVYLAGKQAHKLGSERMIDEIVSMVESRAAEIEAEKLAAAEAAE | not soluble
20 | MMNQSRIKPVRMLILLRKLSPISRRIRIRNRLKQKTRSATIKSRCNPCLISVLANCYWCSSSASPPSGAATTACGGKNGSGLDSRVAFTGDNGAERTDPGVKTPGVSGQSEKG | not soluble
21 | MMEPTIHLRQAKAGDIPAILEIEQECFQEDSFSREQFVYLICRSKGTFYVVVEQERIIAYVSLLFHAGTRYLRIYSIAVHPDCRGRKLGQLLMERTIETALDCRAVKITLEVKESNTPAIKLYMKNGFIPVGVKPNYYHDGSDAIYMQRHM | not soluble
22 | DGPYLQILEQPKQRGFRFRYVCEGPSHGGLPGASSEKNKKSYPQVKICNYVGPAKVIVQLVTNGKNIHLHAHSLVGKHCEDGVCTVTAGPKDMVVGFANLGILHVTKKKVFETLEARMTEACIRGYNPGLLVHSDLAYLQAEGGGDRQLTDREKEIIRQAAVQQTKEMDLSVVRLMFTAFLPDSTGSFTRRLEPVVSDAIYDSKAPNASNLKIVRMDRTAGCVTGGEEIYLLCDKVQKDDIQIRFYEEEENGGVWEGFGDFSPTDVHRQFAIVFKTPKYKDVNITKPASVFVQLRRKSDLETSEPKPFLYYPEIKDKEEVQRKRQK | soluble
23 | PAKLGYWKLRGLAQPVRLFLEYLGEEYEEHLYGRDDREKWMSEKFNMGLDLPNLPYYIDDKCKLTQSVAIMRYIADKHGMLGTTPEERARISMIEGAAMDLRIGFGRVCYNPKFEEVKEEYVKELPKTLKMWSDFLGDRHYLTGSSVSHVDFMLYETLDSIRYLAPHCLDEFPKLKEFKSRIEALPKIKAYMESKRFIKWPLNGWAASFGAGDAPPS | soluble
